The record followed here is doi:10.1101/2022.04.12.488087 (bioRxiv, 2022).

Test [1] has as its target T1, SARS-CoV-2 wild type receptor binding domain (RBD) (SARS-CoV-2, UniProt P0DTC2). As to the kind of experiment: SPR.
Test [2] concerns the target T1, SARS-CoV-2 wild type receptor binding …. As to the kind of experiment: crystal structure.

B1: VHH72, previously published nanobody (VHH)
VHH: QVQLQESGGGLVQAGGSLRLSCAASGRTFSEYAMGWFRQAPGKEREFVATISWSGGSTYYTDSVKGRFTISRDNAKNTVYLQMNSLKPDDTAVYYCAAAGLGTVVSEWDYDYDYWGQGTQVTVSS
With B1, the binding result in test [1] is on record as “binds”.

B2: nanobody 3-2A2-4 (VHH with 6xHis tag, for crystal structural analysis) (VHH)
VHH: QVQLQESGGGLVQPGESLRLSCAASGSISTLNVMGWYRQAPGKQRELVAQITLDGSPEYADSVKGRFTITKDGAQSTLYLQMNNLKPEDTAVYFCKLENGGFFYYWGQGTQVTVST
For B2, the binding result in test [2] was “binds”.

B3: nanobody Nb70 (VHH with 6xHis tag, for crystal structural analysis) (VHH)
VHH: QVQLVESGGGLVQAGGSLRLSCVASGRTFSRYAMGWFRQAPGKEREFVAVIEWDGGTSYYVDSVKGRFTISRDNAKNTVYLQMNSLKPEDTAVYYCAAGGNQYYSATYSIWNEYDFWGQGTQVTVSS
B3: the binding result in test [2] is given as “binds”.
